The values below are quoted from earlier work in PMC4366142.

The series deals with muscle voltage-gated sodium channel (UniProt P15390).
UniProt P15390, sequence (P15390 whole entry): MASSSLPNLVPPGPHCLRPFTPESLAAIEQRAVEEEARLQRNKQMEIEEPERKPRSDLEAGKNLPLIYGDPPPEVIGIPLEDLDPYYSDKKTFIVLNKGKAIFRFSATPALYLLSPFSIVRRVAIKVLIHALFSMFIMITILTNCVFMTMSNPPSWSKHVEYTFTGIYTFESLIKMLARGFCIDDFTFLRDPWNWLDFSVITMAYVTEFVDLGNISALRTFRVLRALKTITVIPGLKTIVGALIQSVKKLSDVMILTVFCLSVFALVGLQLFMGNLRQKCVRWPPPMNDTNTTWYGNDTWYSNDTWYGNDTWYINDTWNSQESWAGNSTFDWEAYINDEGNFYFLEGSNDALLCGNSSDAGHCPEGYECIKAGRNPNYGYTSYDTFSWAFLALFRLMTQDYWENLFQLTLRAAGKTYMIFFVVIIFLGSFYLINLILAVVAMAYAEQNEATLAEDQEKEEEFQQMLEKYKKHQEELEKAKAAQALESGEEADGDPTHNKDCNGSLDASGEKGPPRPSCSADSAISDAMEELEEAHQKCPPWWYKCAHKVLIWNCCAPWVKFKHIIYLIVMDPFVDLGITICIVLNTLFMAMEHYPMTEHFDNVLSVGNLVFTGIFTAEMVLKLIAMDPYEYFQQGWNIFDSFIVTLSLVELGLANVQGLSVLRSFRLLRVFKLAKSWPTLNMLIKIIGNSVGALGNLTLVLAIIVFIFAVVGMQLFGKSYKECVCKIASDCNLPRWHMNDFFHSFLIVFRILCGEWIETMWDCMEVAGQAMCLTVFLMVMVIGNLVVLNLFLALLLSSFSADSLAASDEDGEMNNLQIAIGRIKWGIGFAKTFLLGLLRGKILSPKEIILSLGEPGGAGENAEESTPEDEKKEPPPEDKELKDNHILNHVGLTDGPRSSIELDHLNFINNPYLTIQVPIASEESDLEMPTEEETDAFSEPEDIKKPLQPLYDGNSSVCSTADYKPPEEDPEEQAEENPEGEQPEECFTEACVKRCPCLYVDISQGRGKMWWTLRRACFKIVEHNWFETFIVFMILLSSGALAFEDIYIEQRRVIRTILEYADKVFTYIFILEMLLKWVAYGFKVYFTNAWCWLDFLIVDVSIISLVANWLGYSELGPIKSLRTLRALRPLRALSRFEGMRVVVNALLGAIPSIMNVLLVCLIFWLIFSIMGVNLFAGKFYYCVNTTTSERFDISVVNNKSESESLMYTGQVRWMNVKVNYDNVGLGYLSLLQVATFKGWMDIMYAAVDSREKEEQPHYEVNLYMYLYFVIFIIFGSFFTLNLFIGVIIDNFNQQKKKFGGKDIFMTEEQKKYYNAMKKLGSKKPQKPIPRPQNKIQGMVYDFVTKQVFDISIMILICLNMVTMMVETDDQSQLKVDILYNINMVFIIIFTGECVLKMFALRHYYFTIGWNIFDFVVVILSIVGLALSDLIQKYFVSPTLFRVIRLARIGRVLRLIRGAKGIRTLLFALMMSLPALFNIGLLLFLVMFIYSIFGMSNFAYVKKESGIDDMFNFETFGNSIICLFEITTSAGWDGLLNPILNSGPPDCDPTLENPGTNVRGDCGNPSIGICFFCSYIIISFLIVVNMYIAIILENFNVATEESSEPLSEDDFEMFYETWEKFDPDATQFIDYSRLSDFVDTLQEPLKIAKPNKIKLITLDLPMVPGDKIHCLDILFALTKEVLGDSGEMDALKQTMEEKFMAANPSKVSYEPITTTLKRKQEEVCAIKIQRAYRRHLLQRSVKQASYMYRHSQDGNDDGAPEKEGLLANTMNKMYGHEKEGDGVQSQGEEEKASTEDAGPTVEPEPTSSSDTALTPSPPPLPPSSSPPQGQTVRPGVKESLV

With μ-conotoxin GIIIA (from UniProt P01523), the Kd is 25 nM.

Usually Kd stands for the free concentration of one partner at which half of the binding sites on the other are occupied at equilibrium, for simple one-to-one binding.
